Data from patent publication US20230174604A1 (Innovent, published 2023).

Target: T1, IL-2Rα-Biotin (biotin-labeled human IL-2Rα, UniProt P01589 aa22-217, with C-terminal avi tag and His6 tag) (human, UniProt P01589 22-217, biotin on the avi tag (enzymatic labeling with BirA))
T1 construct: Expressed in HEK293-F, monomer peak collected; loaded on SA sensor or used to stain yeast; also called CD25; IL-2Rα receptor
T1 sequence: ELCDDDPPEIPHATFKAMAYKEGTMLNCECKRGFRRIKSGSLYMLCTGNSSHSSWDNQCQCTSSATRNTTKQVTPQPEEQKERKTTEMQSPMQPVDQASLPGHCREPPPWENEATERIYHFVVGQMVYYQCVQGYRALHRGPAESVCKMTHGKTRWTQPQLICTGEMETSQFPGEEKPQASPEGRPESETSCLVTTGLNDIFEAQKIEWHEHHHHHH
Assay: flow cytometry, yeast-displayed IL-2 stained with IL-2Rα-Biotin
Procedure: Yeast cells comprising a single mutant sequence after sequencing were induced by shaking at 20° C. for 24 h to display IL-2^mutant, and stained together with their receptors IL-2Rα-Biotin and IL-2Rβ IH-Biotin, respectively. The specific steps were as follows: [0191] […] 1. 1×10⁶ cells from each sample were centrifuged to discard the supernatant, and washed with FACS buffer once for later use; [0193] 2. the cells were added to 100 μL of FACS buffer containing 50 nM IL-2Rα-Biotin and Anti Flag antibody, and incubated at room temperature for 30 min; [0194] 3. the mixture was centrifuged at 3000 rpm at 4° C. for 3 min, and washed twice with pre-cooled FACS buffer; [0195] 4. […] 5. after being washed twice with pre-cooled FACS buffer, the cells were resuspended in 100 μL of buffer, and the binding level of IL-2^mutant to IL-2Rα was assayed by a flow cytometer (BD, ACCURI C6). [0197] II. […] 1. 1×10⁶ cells from each sample were centrifuged to discard the supernatant, and washed with FACS buffer once for later use; [0199] 2. the cells were added to 100 μL of FACS buffer containing IL-2Rβ IH-Biotin (30 nM-100 nM) and Anti Flag antibody, and incubated at room temperature for 30 min; [0200] 3. following steps 3-5 described above, the binding level of IL-2′ to IL-2Rβ was assayed.

binding result: no binding (tested: 50 nM IL-2Rα-Biotin)
B1: IL-2^3X displayed on the surface of yeasts (ligand)
chain: APTSSSTKKTQLQLEHLLLDLQMILNGINNYKNPKLTDMLTFEFYMPKKATELKHLQCLERELKPLEEVLNLAQSKNFHLRPRDLISNINVIVLELKGSETTFMCEYADETATIVEFLNRWITFSQSIISTLT
notes: control in the flow cytometry staining
